Data: article PMC6329520, “Diversification of DNA binding specificities enabled SREBP transcription regulators to expand the repertoire of cellular functions that they govern in fungi”

Key:
[1] = target: T1, AfSrbA DBD (Aspergillus fumigatus, UniProt Q4WIN1 145-266); experiment: competition; conditions: unlabeled competitor vs labeled N1; at least one order of magnitude; Standard EMSA buffer (composition by reference), 90 min, room temperature, 6% polyacrylamide gel in 0.5x TGE; pH and salt not given
T1 sequence: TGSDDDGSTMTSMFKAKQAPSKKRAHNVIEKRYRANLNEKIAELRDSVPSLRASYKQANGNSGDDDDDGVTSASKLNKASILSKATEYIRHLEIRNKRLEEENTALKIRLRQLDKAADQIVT

[2] = target: T2, CaHms1 DBD (Candida albicans, UniProt A0A1D8PMZ4 463-685); experiment: competition; conditions: unlabeled competitor vs labeled N1; at least one order of magnitude; Standard EMSA buffer (composition by reference), 90 min, room temperature, 6% polyacrylamide gel in 0.5x TGE; pH and salt not given
[3] = target: T3, CaCph2 DBD (Candida albicans, UniProt Q59RL7 197-302); experiment: competition; little if any discrimination from N3; Standard EMSA buffer (composition by reference), 90 min, room temperature, 6% polyacrylamide gel in 0.5x TGE; pH and salt not given; conditions: protein: recombinant; tags: N-terminal 6xHis or 6xHis-MBP (primers: pLIC-H3); chain copies: 2; label: 32P
T3 sequence: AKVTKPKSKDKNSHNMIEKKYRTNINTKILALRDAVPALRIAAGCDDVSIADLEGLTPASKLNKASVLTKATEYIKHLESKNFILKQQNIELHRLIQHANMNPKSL

[4] = target: T1, AfSrbA DBD; experiment: EMSA; 0-100 nM protein; Standard EMSA buffer (composition by reference), 90 min, room temperature, 6% polyacrylamide gel in 0.5x TGE; pH and salt not given; conditions: protein: recombinant; tags: N-terminal 6xHis or 6xHis-MBP (primers: pLIC-H3); chain copies: 2; label: 32P
[5] = target: T4, CpHms1 DBD (Candida parapsilosis, UniProt G8B9T4 486-659); experiment: as above; conditions: protein: recombinant; tags: N-terminal 6xHis or 6xHis-MBP (primers: pbRZ75); chain copies: 2; label: 32P
T4 sequence: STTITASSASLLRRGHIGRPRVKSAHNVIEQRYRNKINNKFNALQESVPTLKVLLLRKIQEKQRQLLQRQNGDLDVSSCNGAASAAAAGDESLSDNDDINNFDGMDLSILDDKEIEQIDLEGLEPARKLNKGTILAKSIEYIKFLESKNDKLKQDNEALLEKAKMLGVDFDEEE

[6] = target: T2, CaHms1 DBD; experiment: as above; conditions: protein: recombinant; tags: N-terminal 6xHis or 6xHis-MBP (primers: pLIC-H3); chain copies: 2; label: 32P

Molecule: palindromic canonical E-box fragment
- binding signal (fold weaker than N1) [1]: > 10
- binding signal (fold weaker than N1) [2]: > 10

B1: non-palindromic site fragment (HMS1 cognate site) (dsDNA)
DNA 1: ACAAAAAAAAATCAGGCCATTTGTAATACT
DNA 2: AGTATTACAAATGGCCTGATTTTTTTTTGT
- binding result [3]: binds
- binding result [4]: binds
- binding result [5]: binds
- binding result [6]: binds
